Source: patent US20160046671A1
Bridges are numbered along the chain shown (N, C = ends). Where no end group is shown, it is not given here. [ ]: non-standard residue; d: D form. S5 = C=CCCC[C@](C)(N)C(=O)O

Molecular target: Wild-type human KRAS protein, N-terminal His6-tag fusion (human), P01116
Experiment: fluorescence polarization
Conditions: modification not given

Kd: 21 nM
Binder: RRF[S5]GIY[S5]TNILKTEEGN (staple 4-8) [SAH-SOS A2]
